Key:
Conditions in all cases: both partners purified
[1] = biological target: T1, Shiga toxin 1 (Stx1) (Escherichia coli (STEC), strain not …, UniProt P08026;P69179); assay: SPR; […]; HBS-EP pH 7.4; 25 °C; 30 uL/min; […]; Langmuir 1:1 model; BIAcore T200; in duplicate
T1 construct: source: bought: Tufts University School of Medicine; copies: 1 + 5

[2] = biological target: Stx2 toxin (Escherichia coli (STEC), strain not …, UniProt P09385;P09386); assay: ELISA; […]; room temperature; in triplicate
[3] = biological target: T1, Shiga toxin 1 (Stx1); assay: ELISA; […]; room temperature; in triplicate

T1 sequence (P69179 whole entry, looked up, chain 1 of 2): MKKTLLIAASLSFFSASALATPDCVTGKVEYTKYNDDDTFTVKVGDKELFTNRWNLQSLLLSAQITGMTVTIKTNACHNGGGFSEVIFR
T1 sequence (P08026 whole entry, looked up, chain 2 of 2): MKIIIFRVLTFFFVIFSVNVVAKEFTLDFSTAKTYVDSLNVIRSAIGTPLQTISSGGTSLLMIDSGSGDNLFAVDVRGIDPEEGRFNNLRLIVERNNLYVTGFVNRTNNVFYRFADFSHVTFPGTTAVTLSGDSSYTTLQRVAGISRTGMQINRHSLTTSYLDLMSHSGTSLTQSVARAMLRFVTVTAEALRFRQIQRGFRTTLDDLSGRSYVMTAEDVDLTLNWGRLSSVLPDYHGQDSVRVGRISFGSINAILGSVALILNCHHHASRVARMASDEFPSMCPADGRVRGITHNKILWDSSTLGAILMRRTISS
Chain of Stx2 toxin (P09386 whole entry, looked up, chain 1 of 2): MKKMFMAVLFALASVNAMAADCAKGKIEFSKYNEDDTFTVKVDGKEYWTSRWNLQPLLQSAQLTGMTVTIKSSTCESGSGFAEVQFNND
Chain of Stx2 toxin (P09385 whole entry, looked up, chain 2 of 2): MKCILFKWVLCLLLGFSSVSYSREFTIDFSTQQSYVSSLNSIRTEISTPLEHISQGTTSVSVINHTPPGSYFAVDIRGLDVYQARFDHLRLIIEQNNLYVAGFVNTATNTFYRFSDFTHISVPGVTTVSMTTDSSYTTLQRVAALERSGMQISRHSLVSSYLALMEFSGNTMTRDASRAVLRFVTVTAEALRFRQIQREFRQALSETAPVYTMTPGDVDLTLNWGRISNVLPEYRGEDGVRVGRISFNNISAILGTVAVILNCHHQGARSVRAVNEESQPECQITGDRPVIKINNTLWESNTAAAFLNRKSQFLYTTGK

B1: scFvStx1 (scFv, V domains shown)
VH: EVQLQQSGPELVKPGTSVKMSCKASGYTFTDYFIHWVKQSHGKSLEWIGYIYPKNDGNDYNQKFKGKATLTVDKSSSTGYMELRSLTSEDSAVYYCARSRGYYGALDYWGQGTSVTVSR
VL: DLQLTQSPATLSVNPGDSVSLSCRASQSIRNDLHWYQQKSHESPRLLIKSVSQSISGIPSRFSGSGSGTDFTLSINSVETEDFGMYFCQQSYSWPLTFGAGTK
notes: also called scFvStx1(II); new scFvStx1; source: E. coli BL21 (DE3) pLysS, periplasmic expression, purified (IMAC)
Kd [1]: 226 nM | binding result [2]: binds | EC50 [3]: 600 nM

— paper PMC6698835 (Antibodies, 2018)
